Consider 1 protein from PMC5701055 (Nature Communications, 2017).

The series deals with the molecule itself. Briefly: crystal structure.

B1: soluble ectodomain of human aminopeptidase N (hAPN), residues 66–967, WT (receptor)
chain: DQSKAWNRYRLPNTLKPDSYRVTLRPYLTPNDRGLYVFKGSSTVRFTCKEATDVIIIHSKKLNYTLSQGHRVVLRGVGGSQPPDIDKTELVEPTEYLVVHLKGSLVKDSQYEMDSEFEGELADDLAGFYRSEYMEGNVRKVVATTQMQAADARKSFPCFDEPAMKAEFNITLIHPKDLTALSNMLPKGPSTPLPEDPNWNVTEFHTTPKMSTYLLAFIVSEFDYVEKQASNGVLIRIWARPSAIAAGHGDYALNVTGPILNFFAGHYDTPYPLPKSDQIGLPDFNAGAMENWGLVTYRENSLLFDPLSSSSSNKERVVTVIAHELAHQWFGNLVTIEWWNDLWLNEGFASYVEYLGADYAEPTWNLKDLMVLNDVYRVMAVDALASSHPLSTPASEINTPAQISELFDAISYSKGASVLRMLSSFLSEDVFKQGLASYLHTFAYQNTIYLNLWDHLQEAVNNRSIQLPTTVRDIMNRWTLQMGFPVITVDTSTGTLSQEHFLLDPDSNVTRPSEFNYVWIVPITSIRDGRQQQDYWLIDVRAQNDLFSTSGNEWVLLNLNVTGYYRVNYDEENWRKIQTQLQRDHSAIPVINRAQIINDAFNLASAHKVPVTLALNNTLFLIEERQYMPWEAALSSLSYFKLMFDRSEVYGPMKNYLKKQVTPLFIHFRNNTNNWREIPENLMDQYSEVNAISTACSNGVPECEEMVSGLFKQWMENPNNNPIHPNLRSTVYCNAIAQGGEEEWDFAWEQFRNATLVNEADKLRAALACSKELWILNRYLSYTLNPDLIRKQDATSTIISITNNVIGQGLVWDFVQSNWKKLFNDYGGGSFSFSNLIQAVTRRFSTEYELQQLEQFKKDNEETGFGSGTRALEQALEKTKANIKWVKENKEVVLQWFTENSK
Take B1: the binding result is “binds”.
